Results on three variants are retold here after IntAct's records for PubMed 16525419.

B1: Nephrin (Homo sapiens), O60500 (parent)
chain: MALGTTLRASLLLLGLLTEGLAQLAIPASVPRGFWALPENLTVVEGASVELRCGVSTPGSAVQWAKDGLLLGPDPRIPGFPRYRLEGDPARGEFHLHIEACDLSDDAEYECQVGRSEMGPELVSPRVILSILVPPKLLLLTPEAGTMVTWVAGQEYVVNCVSGDAKPAPDITILLSGQTISDISANVNEGSQQKLFTVEATARVTPRSSDNRQLLVCEASSPALEAPIKASFTVNVLFPPGPPVIEWPGLDEGHVRAGQSLELPCVARGGNPLATLQWLKNGQPVSTAWGTEHTQAVARSVLVMTVRPEDHGAQLSCEAHNSVSAGTQEHGITLQVTFPPSAIIILGSASQTENKNVTLSCVSKSSRPRVLLRWWLGWRQLLPMEETVMDGLHGGHISMSNLTFLARREDNGLTLTCEAFSEAFTKETFKKSLILNVKYPAQKLWIEGPPEGQKLRAGTRVRLVCLAIGGNPEPSLMWYKDSRTVTESRLPQESRRVHLGSVEKSGSTFSRELVLVTGPSDNQAKFTCKAGQLSASTQLAVQFPPTNVTILANASALRPGDALNLTCVSVSSNPPVNLSWDKEGERLEGVAAPPRRAPFKGSAAARSVLLQVSSRDHGQRVTCRAHSAELRETVSSFYRLNVLYRPEFLGEQVLVVTAVEQGEALLPVSVSANPAPEAFNWTFRGYRLSPAGGPRHRILSSGALHLWNVTRADDGLYQLHCQNSEGTAEARLRLDVHYAPTIRALQDPTEVNVGGSVDIVCTVDANPILPGMFNWERLGEDEEDQSLDDMEKISRGPTGRLRIHHAKLAQAGAYQCIVDNGVAPPARRLLRLVVRFAPQVEHPTPLTKVAAAGDSTSSATLHCRARGVPNIVFTWTKNGVPLDLQDPRYTEHTYHQGGVHSSLLTIANVSAAQDYALFTCTATNALGSDQTNIQLVSISRPDPPSGLKVVSLTPHSVGLEWKPGFDGGLPQRFCIRYEALGTPGFHYVDVVPPQATTFTLTGLQPSTRYRVWLLASNALGDSGLADKGTQLPITTPGLHQPSGEPEDQLPTEPPSGPSGLPLLPVLFALGGLLLLSNASCVGGVLWQRRLRRLAEGISEKTEAGSEEDRVRNEYEESQWTGERDTQSSTVSTTEAEPYYRSLRDFSPQLPPTQEEVSYSRGFTGEDEDMAFPGHLYDEVERTYPPSGAWGPLYDEVQMGPWDLHWPEDTYQDPRGIYDQVAGDLDTLEPDSLPFELRGHLV

Variants of B1 are the subject of the test “nck1_human NCK1, P16333”. The following applies: with nck1_human NCK1, P16333.
Test [1] covers variants of B1. Particulars: with nck2_human NCK2, O43639.
Sequence of nck2_human NCK2, O43639 (O43639 whole entry): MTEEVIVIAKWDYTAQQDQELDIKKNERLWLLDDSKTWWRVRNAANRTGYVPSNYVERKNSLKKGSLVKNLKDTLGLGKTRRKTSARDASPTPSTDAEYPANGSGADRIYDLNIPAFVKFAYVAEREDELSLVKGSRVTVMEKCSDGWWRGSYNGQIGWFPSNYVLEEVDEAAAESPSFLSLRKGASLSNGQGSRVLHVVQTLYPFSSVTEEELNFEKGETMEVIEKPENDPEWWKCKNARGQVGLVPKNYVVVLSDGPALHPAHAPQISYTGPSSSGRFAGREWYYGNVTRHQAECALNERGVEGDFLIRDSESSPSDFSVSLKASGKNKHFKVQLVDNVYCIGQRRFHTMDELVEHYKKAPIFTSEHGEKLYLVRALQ
The test “wasp_mouse Was, P70315” covers variants of B1. The following applies: with wasp_mouse Was.
In test [2] the parent is B1. The following applies: with nck2_human NCK2, O43639. This is another data set of the same source.

Sequence of wasp_mouse Was, P70315 (P70315 whole entry): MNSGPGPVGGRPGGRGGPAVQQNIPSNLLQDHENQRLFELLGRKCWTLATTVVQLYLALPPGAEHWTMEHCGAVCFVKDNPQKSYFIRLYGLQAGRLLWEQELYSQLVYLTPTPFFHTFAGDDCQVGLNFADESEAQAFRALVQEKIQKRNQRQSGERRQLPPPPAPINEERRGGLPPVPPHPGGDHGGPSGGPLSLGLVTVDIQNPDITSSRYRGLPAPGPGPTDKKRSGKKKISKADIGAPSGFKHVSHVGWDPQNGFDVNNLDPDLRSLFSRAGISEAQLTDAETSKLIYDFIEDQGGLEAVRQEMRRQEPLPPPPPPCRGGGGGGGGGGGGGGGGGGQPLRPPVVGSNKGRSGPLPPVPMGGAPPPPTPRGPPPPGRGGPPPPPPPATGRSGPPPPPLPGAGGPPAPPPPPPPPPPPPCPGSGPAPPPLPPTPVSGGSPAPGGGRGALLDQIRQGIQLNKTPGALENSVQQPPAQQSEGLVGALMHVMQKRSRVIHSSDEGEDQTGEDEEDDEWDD

As for Y1176F;Y1217F, the “effect of a mutation on the interaction” value with nck1_human NCK1, P16333 was “decreasing interaction”.
As to Y1176F;Y1193F;Y1217F, the “effect of a mutation on the interaction” value with nck1_human NCK1, P16333 is listed as “decreasing interaction”; with nck2_human NCK2, O43639 [1], “disrupting interaction”; with wasp_mouse Was, P70315, “disrupting interaction”; in the test with nck2_human NCK2, O43639 [2], “disrupting interaction”.
As for Y1193F;Y1217F, the “effect of a mutation on the interaction” value with nck1_human NCK1, P16333 is “decreasing interaction”.
